Target: T1, GluR1 carboxy‐terminal region (SPR)
T1 chain: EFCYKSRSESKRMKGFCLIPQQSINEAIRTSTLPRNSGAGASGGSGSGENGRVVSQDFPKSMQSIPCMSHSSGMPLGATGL
Assay: SPR

Kd: 1.01 µM
B1: full‐length CIRP protein (SPR) (natural protein)
chain: MASDEGKLFVGGLSFDTNEQALEQVFSKYGQISEVVVVKDRETQRSRGFGFVTFENIDDAKDAMMAMNGKSVDGRQIRVDQAGKSSDNRSRGYRGGSAGGRGFFRGGRSRGRGFSRGGGDRGYGGGRFESRSGGYGGSRDYYASRSQGGSYGYRSSGGSYRDSYDSYATHNE
